Test results published in article PMC2734569, “Functional mapping of the fission yeast DNA polymerase δ B-subunit Cdc1 by site-directed and random pentapeptide insertion mutagenesis” (BMC Molecular Biology, 2009).

Experiments:
Experiment in all cases: two-hybrid; LexA-Cdc1 bait (pBTM116 or pBTM116BN) with Gal4-Pol3 prey and co-expressed c-myc-tagged Cdc27 (pAA-Cdc27) in S. cerevisiae CTY10-5d; ONPG liquid culture beta-galactosidase assay, mean of triplicates, as percent of wild-type Cdc1
Conditions in all cases: partners not purified
Cdc1-J2 = molecular target: T1, Cdc1-J2 (Schizosaccharomyces pombe, UniProt P87324 1-462, Tyr-ArgGlyThrProTyr-Ser)
T1 construct: Cdc1, S. pombe, with a pentapeptide inserted after residue 25; also called J18; J20; source: yeast two-hybrid fusion, in S. cerevisiae CTY10-5d
T1 sequence (looked up): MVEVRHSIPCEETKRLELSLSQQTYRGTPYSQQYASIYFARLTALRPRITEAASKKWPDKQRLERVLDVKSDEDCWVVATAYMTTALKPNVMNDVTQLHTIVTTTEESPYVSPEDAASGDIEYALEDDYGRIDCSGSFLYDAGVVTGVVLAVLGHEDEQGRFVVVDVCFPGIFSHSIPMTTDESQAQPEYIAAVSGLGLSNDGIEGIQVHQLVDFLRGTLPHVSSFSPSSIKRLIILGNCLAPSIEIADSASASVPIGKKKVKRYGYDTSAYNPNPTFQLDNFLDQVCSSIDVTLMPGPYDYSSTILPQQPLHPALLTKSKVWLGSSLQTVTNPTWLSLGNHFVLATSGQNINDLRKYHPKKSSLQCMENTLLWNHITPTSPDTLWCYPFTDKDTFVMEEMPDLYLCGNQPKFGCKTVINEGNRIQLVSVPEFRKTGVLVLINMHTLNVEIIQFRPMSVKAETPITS

Cdc1-A5 = molecular target: T2, Cdc1-A5 (Schizosaccharomyces pombe, UniProt P87324 1-462, Asn328Ala)
T2 construct: Cdc1, S. pombe, point mutant; source: yeast two-hybrid fusion, in S. cerevisiae CTY10-5d
T2 sequence (looked up): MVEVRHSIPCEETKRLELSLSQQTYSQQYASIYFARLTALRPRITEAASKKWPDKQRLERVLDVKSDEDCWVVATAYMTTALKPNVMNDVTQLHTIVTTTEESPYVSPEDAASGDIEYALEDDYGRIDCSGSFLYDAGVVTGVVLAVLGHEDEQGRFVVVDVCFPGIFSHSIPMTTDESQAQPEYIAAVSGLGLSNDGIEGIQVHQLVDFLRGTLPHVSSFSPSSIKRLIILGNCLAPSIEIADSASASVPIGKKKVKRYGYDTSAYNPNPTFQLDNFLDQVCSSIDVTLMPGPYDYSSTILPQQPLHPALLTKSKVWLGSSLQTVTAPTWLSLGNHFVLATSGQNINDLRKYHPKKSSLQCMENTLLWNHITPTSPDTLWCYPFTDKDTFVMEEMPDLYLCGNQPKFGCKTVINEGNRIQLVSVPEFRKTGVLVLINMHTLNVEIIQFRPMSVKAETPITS

Cdc1-A4 = molecular target: T3, Cdc1-A4 (Schizosaccharomyces pombe, UniProt P87324 1-462, Pro303Ala)
T3 construct: Cdc1, S. pombe, point mutant; source: yeast two-hybrid fusion, in S. cerevisiae CTY10-5d
T3 sequence (looked up): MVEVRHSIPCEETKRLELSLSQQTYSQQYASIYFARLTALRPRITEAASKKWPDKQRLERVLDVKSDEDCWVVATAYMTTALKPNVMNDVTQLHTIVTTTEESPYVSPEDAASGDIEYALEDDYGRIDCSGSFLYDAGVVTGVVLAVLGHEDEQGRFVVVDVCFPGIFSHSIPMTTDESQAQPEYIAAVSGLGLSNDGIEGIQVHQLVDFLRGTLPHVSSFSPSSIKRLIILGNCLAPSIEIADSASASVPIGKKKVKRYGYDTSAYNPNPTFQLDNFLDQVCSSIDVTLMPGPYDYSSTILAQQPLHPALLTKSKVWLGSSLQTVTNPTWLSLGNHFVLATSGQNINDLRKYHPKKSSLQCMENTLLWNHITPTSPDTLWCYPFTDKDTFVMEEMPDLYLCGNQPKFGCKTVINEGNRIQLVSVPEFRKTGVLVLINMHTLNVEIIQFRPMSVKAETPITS

Cdc1-J16 = molecular target: T4, Cdc1-J16 (Schizosaccharomyces pombe, UniProt P87324 1-462, Val-GlyGlyThrProVal-Asp)
T4 construct: Cdc1, S. pombe, with a pentapeptide inserted after residue 160; source: yeast two-hybrid fusion, in S. cerevisiae CTY10-5d
T4 sequence (looked up): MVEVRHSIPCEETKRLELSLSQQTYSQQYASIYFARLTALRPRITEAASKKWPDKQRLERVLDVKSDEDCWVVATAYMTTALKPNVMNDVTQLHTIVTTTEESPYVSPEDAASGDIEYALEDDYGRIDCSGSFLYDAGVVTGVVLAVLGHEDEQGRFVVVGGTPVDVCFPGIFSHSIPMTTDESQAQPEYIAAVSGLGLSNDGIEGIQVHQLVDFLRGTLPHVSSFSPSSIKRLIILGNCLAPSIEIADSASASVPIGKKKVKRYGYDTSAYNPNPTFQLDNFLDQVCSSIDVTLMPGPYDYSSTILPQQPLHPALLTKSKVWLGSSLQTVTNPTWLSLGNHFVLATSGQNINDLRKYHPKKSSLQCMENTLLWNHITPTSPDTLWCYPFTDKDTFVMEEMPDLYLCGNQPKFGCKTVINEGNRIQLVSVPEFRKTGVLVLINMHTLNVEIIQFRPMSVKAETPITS

two-hybrid beta-galactosidase activity, % of wild-type Cdc1 (Cdc1-J2): 46%
two-hybrid beta-galactosidase activity, % of wild-type Cdc1 (Cdc1-A5): 4%
two-hybrid beta-galactosidase activity, % of wild-type Cdc1 (Cdc1-A4): < 1%
two-hybrid beta-galactosidase activity, % of wild-type Cdc1 (Cdc1-J16): < 1%
B1: Pol3 (fission yeast DNA polymerase delta catalytic subunit) (natural protein, Schizosaccharomyces pombe, UniProt P30316 1-1086, looked up)
chain: MTDRSSNEGVVLNKENYPFPRRNGSIHGEITDVKRRRLSERNGYGDKKGSSSKEKTSSFEDELAEYASQLDQDEIKSSKDQQWQRPALPAINPEKDDIYFQQIDSEEFTEGSVPSIRLFGVTDNGNSILVHVVGFLPYFYVKAPVGFRPEMLERFTQDLDATCNGGVIDHCIIEMKENLYGFQGNEKSPFIKIFTTNPRILSRARNVFERGEFNFEELFPVGVGVTTFESNTQYLLRFMIDCDVVGMNWIHLPASKYQFRYQNRVSNCQIEAWINYKDLISLPAEGQWSKMAPLRIMSFDIECAGRKGVFPDPSIDPVIQIASIVTQYGDSTPFVRNVFCVDTCSQIVGTQVYEFQNQAEMLSSWSKFVRDVDPDVLIGYNICNFDIPYLLDRAKSLRIHNFPLLGRIHNFFSVAKETTFSSKAYGTRESKTTSIPGRLQLDMLQVMQRDFKLRSYSLNAVCSQFLGEQKEDVHYSIITDLQNGTADSRRRLAIYCLKDAYLPQRLMDKLMCFVNYTEMARVTGVPFNFLLARGQQIKVISQLFRKALQHDLVVPNIRVNGTDEQYEGATVIEPIKGYYDTPIATLDFSSLYPSIMQAHNLCYTTLLDSNTAELLKLKQDVDYSVTPNGDYFVKPHVRKGLLPIILADLLNARKKAKADLKKETDPFKKAVLDGRQLALKVSANSVYGFTGATNGRLPCLAISSSVTSYGRQMIEKTKDVVEKRYRIENGYSHDAVVIYGDTDSVMVKFGVKTLPEAMKLGEEAANYVSDQFPNPIKLEFEKVYFPYLLISKKRYAGLFWTRTDTYDKMDSKGIETVRRDNCPLVSYVIDTALRKMLIDQDVEGAQLFTKKVISDLLQNKIDMSQLVITKALSKTDYAAKMAHVELAERMRKRDAGSAPAIGDRVAYVIIKGAQGDQFYMRSEDPIYVLENNIPIDAKYYLENQLSKPLLRIFEPILGEKASSLLHGDHTRTISMAAPSVGGIMKFAVKVETCLGCKAPIKKGKTALCENCLNRSAELYQRQVAQVNDLEVRFARLWTQCQRCQGSMHQDVICTSRDCPIFYMRIAEHKKLQQSVDLLKRFDEMSW
notes: DNA polymerase delta catalytic subunit Pol3, S. pombe; prey plasmid named pACT-Pol3 in the results and pGAD2F-Pol3 in the methods; also called Gal4-Pol3; pACT-Pol3; source: yeast two-hybrid fusion, in S. cerevisiae CTY10-5d
